In article PMC539286 one finds HTLV Env-mediated cell fusion with target cells that express the mutant, percent of control fusion and MLV(HTLV) pseudotype infection of target cells that express the mutant, percent of control infection data, which are given here for one substance.

This test deals with HTLV receptor (Glut1, the ubiquitous vertebrate glucose transporter) on human cells (human (endogenous in 293T)) (UniProt P11166).
Chain of UniProt P11166 (P11166 whole entry): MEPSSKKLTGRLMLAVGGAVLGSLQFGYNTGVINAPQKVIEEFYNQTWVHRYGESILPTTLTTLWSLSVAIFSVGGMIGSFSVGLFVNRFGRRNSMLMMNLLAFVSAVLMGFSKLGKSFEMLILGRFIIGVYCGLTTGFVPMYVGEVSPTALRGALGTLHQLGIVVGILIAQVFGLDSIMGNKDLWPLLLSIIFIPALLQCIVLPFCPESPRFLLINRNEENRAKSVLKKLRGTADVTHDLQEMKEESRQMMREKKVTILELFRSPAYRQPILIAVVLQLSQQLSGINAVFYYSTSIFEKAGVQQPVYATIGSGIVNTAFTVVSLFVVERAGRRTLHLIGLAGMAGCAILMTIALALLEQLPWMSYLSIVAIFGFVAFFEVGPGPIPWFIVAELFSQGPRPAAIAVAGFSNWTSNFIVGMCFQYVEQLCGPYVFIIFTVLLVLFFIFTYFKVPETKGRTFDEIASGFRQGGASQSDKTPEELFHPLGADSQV

Turning to “H1(Y114A)SU, H1_(215)SU subdomain with Tyr114 mutated to Ala (from UniProt P23064 21-215) (Fc fusion)”, the HTLV Env-mediated cell fusion with target cells that express the mutant, percent of control fusion is 56 % of control and the MLV(HTLV) pseudotype infection of target cells that express the mutant, percent of control infection was 46 % of control.
